Columns and labels:
[1] = target: putative phosphatase 17 (PP17), a histidine family phosphatase (HFP), Aquifex aeolicus (Aquifex aeolicus); test: SEC; preparative gel filtration, 120 ml HiLoad 16/600 Superdex 75 prep grade column, 50 mM Hepes pH 8.0, 150 mM NaCl, 20% glycerol
[2] = target: the molecule itself; test: SEC; 120 ml HiLoad 16/600 Superdex 75 prep grade column, 50 mM Hepes pH 8.0, 150 mM NaCl, 20% glycerol; molecular weight from a standard curve of commercial standard proteins (65 kDa)

Molecule | stoichiometry N [1] | stoichiometry N [2]
putative phosphatase 17 (PP17), a histidine family phosphatase (HFP), Aquifex aeolicus (enzyme) | 2 | –
putative phosphatase 11 (PP11), annotated as a myo-inositol-1(or 4)-monophosphatase (IMP), Aquifex aeolicus (enzyme, Aquifex aeolicus putative phosphatase 11, annotated as myo-inositol-1(or 4)-monophosphatase; codon optimised, in pET20b with a stop codon before the C-terminal histidine tag so that the protein is expressed in the native form; Untagged; Two magnesium ions and a phosphate in the active site of the structure; source: E. coli BL21 (DE3), purified (heat 70 °C, gel filtration)) MENLKKYLEVAKIAALAGGQVLKENFGKVKKENIEEKGEKDFVSYVDKTSEERIKEVILKFFPDHEVVGEEMGAEGSGSEYRWFIDPLDGTKNYINGFPIFAVSVGLVKGEEPIVGAVYLPYFDKLYWGAKGLGAYVNGKRIKVKDNESLKHAGVVYGFPSRSRRDISIYLNIFKDVFYEVGSMRRPGAAAVDLCMVAEGIFDGMMEFEMKPWDITAGLVILKEAGGVYTLVGEPFGVSDIIAGNKALHDFILQVAKKYMEVAV | – | 2

From article PMC12051542, “Identification of the phosphatase essential for riboflavin biosynthesis in Aquifex aeolicus” (The Journal of Biological Chemistry, 2025)
